Experimental data as given in PMC6532856, “A single dose of antibody-drug conjugate cures a stage 1 model of African trypanosomiasis” (PLoS Neglected Tropical Diseases, 2019).

Biological target: T1, Recombinant HpHbR N-terminal domain (Trypanosoma brucei haptoglobin-haemoglobin receptor) (Trypanosoma brucei brucei, biotin (only for the protein coated on streptavidin-coated plates; site not stated))
T1 construct: also called HpHbR NTD; TbHpHbR NTD; source: recombinant, expressed as previously described [34]
Test: ELISA; phage ELISA: 10 ug/ml TbHpHbR NTD coated onto Nunc Maxisorp plates or 5 ug/mL biotinylated protein on streptavidin-coated plates overnight at 4°C; blocked phage supernatants 1 hr at room temperature; bound phage detected with anti-M13 HRP antibody; BSA and streptavidin in parallel
Details: one partner purified

Binder | binding result
Tb017 scFv (scFv, V domains shown, framework domains and CDR1-3 marked; source: phage produced from E. coli, phage-containing supernatant) VH: QVQLVQSGAEVKKPGSSVKVSCKASGGTFSSYAISWVRQAPGQGLEWMGGIIPIFGTANYAQKFQGRVTITADESTSTAYMELSSLRSEDTAVYYCARGWWYDLVFDYWGQGTLVTVSS VL: not shown | binds
Tb078 scFv (scFv, V domains shown, framework domains and CDR1-3 marked; source: phage produced from E. coli, phage-containing supernatant) VH: QVQLVQSGAEVKKPGSSVKVSCKASGGTFSSYAISWVRQAPGQGLEWMGGIIPIFGTANYAQKFQGRVTITADESTSTAYMELSSLRSEDTAVYYCARGWIYEFIIDAWGQGTLVTVSS VL: not shown | binds
Tb085 scFv (scFv, V domains shown, framework domains and CDR1-3 marked; source: phage produced from E. coli, phage-containing supernatant) VH: QVQLVQSGAEVKKPGSSVKVSCKASGGTFSSYAISWVRQAPGQGLEWMGGIIPIFGTANYAQKFQGRVTITADESTSTAYMELSSLRSEDTAVYYCAREGWDYGWFDFWGQGTLVTVSS VL: not shown | binds
Tb074 scFv (scFv, V domains shown, framework domains and CDR1-3 marked; source: phage produced from E. coli, phage-containing supernatant) VH: QVQLVQSGAEVKKPGSSVKVSCKASGGTFSSYAISWVRQAPGQGLEWMGGIIPIFGTANYAQKFQGRVTITADESTSTAYMELSSLRSEDTAVYYCARGWWHEPGFDYWGQGTLVTVSS VL: not shown | binds
Tb086 scFv (scFv, V domains shown, framework domains and CDR1-3 marked; source: phage produced from E. coli, phage-containing supernatant) VH: QVQLVQSGAEVKKPGSSVKVSCKASGGTFSSYAISWVRQAPGQGLEWMGGIIPIFGTANYAQKFQGRVTITADESTSTAYMELSSLRSEDTAVYYCARGWYYHGGIDYWGQGTLVTVSS VL: not shown | binds
Tb073 scFv (scFv, V domains shown, framework domains and CDR1-3 marked; source: phage produced from E. coli, phage-containing supernatant) VH: QVQLVQSGAEVKKPGSSVKVSCKASGGTFSSYAISWVRQAPGQGLEWMGGIIPIFGTANYAQKFQGRVTITADESTSTAYMELSSLRSEDTAVYYCARGWYDMGDFDMWGQGTLVTVSS VL: QSVLTQPPSASGTPGQRVTISCSGSSSNIGSNTVNWYQQLPGTAPKLLIYSNNQRPSGVPDRFSGSKSGTSASLAISGLQSEDEADYYCAAWDWHHGHVVVFGGGTKLTVL | binds
